Measured values reported in the supplement of paper PMC9170038.

Test system: MS2 coat protein
Assay: apparent KD of MS2 coat protein; designed switch direction (-1 OFF switch, 1 ON switch): -1; higher = weaker reporter binding
Outline: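 Designed RNA switches with common flanks were made on Illumina chips by stalled E. coli RNA polymerase. Titration with SNAP-549-labelled MS2 coat protein doubled from 0.7 or 1.5 nM up to 3 µM. Apparent KD is each design's median over clusters after curve-fitting normalised fluorescence.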

[1] = input ligand: microRNA oligo, concentration not stated
[2] = Eterna round: R95, input ligand: FMN 200 uM
[3] = Eterna round: R95, input ligand: microRNA oligo, concentration not stated
[4] = Eterna round: R95, input ligand: none

Row | Sequence | apparent KD of MS2 coat protein (input ligand: FMN 200 uM) [nM] | apparent KD of MS2 coat protein (input ligand: none) [nM] | apparent KD of MS2 coat protein [3] [nM] | other results
1 | ACAUGAGGAUCACCCAUGUCAGGCGGGUCCACUCCGGCUGUUGAGGAUAUAGUUCGGUAUCCGCGCUAGAAGGUGAGGGCCGGC [Aenatbe mod 22] (Eterna round: R96, puzzle: Exclusion NG 3) | 16 | 18.2 | – | apparent KD of MS2 coat protein [1]: 15.3 nM
2 | UUUUUGUCAGGAUAUGCAUGUUUUUUUUUUUUUUUUUUCAUGCAGAAGGGACAUGAGGAUCACCCAUGUAGUUU [Ex4 - 3 - 10] (Eterna round: R96, puzzle: Exclusion 4) | 53.7 | 63.2 | – | apparent KD of MS2 coat protein [1]: 61.7 nM
3 | GUCAUACAUGAGGAUCACCCAUGUGAGGAUAUGGGCGGCGCCGCAAAAGCGGCGCCGCCCAGAAGGCGCAUGAU [Malcxlusion 5 - Jieux - Exclusion 1] (Eterna round: R97, puzzle: Exclusion 1) | 195 | 71.5 | – | –
4 | UUUAAUUUUUUUUUUUUACAAGCUUUUUGCUCGUCUUAUACAUGAGGAUCACCCAUGUGGAUGGAAGAUAAAUUAUC [JMF 9] (puzzle: Sensor v3, turn-off variant 2) | – | – | 18.6 | apparent KD of MS2 coat protein [2]: 16.2 nM; apparent KD of MS2 coat protein [4]: 16.5 nM
5 | UCGGCGCGAGGAUAUGCGGCUGCUGCUUCGGGCCGUGGCGUACAUGAGGAUCACCCAUGUAGAAGGCGCGCCGC [Apr-15 SS2-40] (Eterna round: R96, puzzle: Exclusion 2) | 12.9 | 14.8 | – | apparent KD of MS2 coat protein [1]: 10.4 nM
6 | GAAUAGAGAGGAUAUGCGUAGUAGGUAGUAAGAUAUAUCUGACAUGAGGAUCACCCAUGUAGAAGGCUCAGAUC [EX2 #3] (Eterna round: R97, puzzle: Exclusion 2) | 40.1 | 35.2 | – | –
7 | AUAAUGUGAGGAUAUCAGUCGACUAGCUGCGGCUAGUCGACUGAGAAGGUACAUGAGGAUCACCCAUGUAGAUC [E4/20-A3] (Eterna round: R97, puzzle: Exclusion 4) | 77.9 | 29.4 | – | –
8 | CAUGGAACGUAGGAUAUCUCGCGGCUAGGCUGCAGAGAAGGACGCACAUGAGGAUCACCCAUGUGUGAUCCAAA [Tibiataus] (puzzle: Exclusion 6) | – | – | 17 | apparent KD of MS2 coat protein [2]: 27.6 nM; apparent KD of MS2 coat protein [4]: 21.9 nM
9 | UUAAAUCAUGUAGGAUAUGCGUGGCGAAGCUAUGCAGAAGGACAUGAGGAUCACCCAUGUGCUUCCGUCUGAGUACAGACGGUA [Mat - Exclusion NG 1 - Mod of JL - D11] (Eterna round: R96, puzzle: Exclusion NG 1) | 221 | 101 | – | apparent KD of MS2 coat protein [1]: 106 nM
10 | GGUUGCGCAGGAUAUACAUGAGGAUCACCCAUGUGAGAGAAAUAAGUGAGGAAGAAAAGUAGAAGGGCGUGACA [Mat - Exclusion 3 - Mod of Salish D75] (puzzle: Exclusion 3) | – | – | 45.3 | apparent KD of MS2 coat protein [2]: 175 nM; apparent KD of MS2 coat protein [4]: 58.9 nM
11 | UGUACUAUGCGAGCUGACUUGCGUAGUGCAGCAGGUGAAACAUGAGGAUCACCCAUGUCCUCAUUUGCUCGUCUUAU [SL-sv3-2.02 JL mod] (puzzle: Sensor v3, turn-off variant 2) | – | – | 599 | apparent KD of MS2 coat protein [2]: 47.7 nM; apparent KD of MS2 coat protein [4]: 41.6 nM
12 | AGAUCACGAGGAUAUCCAGUGUAGUACAUGAGGAUCACCCAUGUUGAUCGUGGAUUCUUGGGAGAAGGCGUGGUUG [Eternabot (L2) Solution 100] (Eterna round: R97, puzzle: Exclusion 5) | 237 | 60.6 | – | –
13 | AGGUGUAGAGGAUAUCGACUUUCUCACAUGAGGAUCACCCAUGUCCUGGUCACCCAGGACCGAGAAGGCUACACCA [Omei Ex5 D27] (Eterna round: R97, puzzle: Exclusion 5) | 204 | 27.6 | – | –
14 | CACCGUUAAGUAGGAUAUCGUACAUGAGGAUCACCCAUGUAAUAAAUGAGAAUUUCGGAUGUAUGCGAGAAGGACUAAAUCGGC [Ostricism 45 - Jieux - Exclusion NG 2] (Eterna round: R96, puzzle: Exclusion NG 2) | – | – | – | apparent KD of MS2 coat protein [1]: 39 nM
15 | GAUUAUGCGAGCUUUAGGGACAUGAGGAUCACCCAUGUUCGUCUUAUUAGUCUAGAUACGCUGACAUACCUAAAUCU [JMF 96] (puzzle: Sensor v3, turn-off variant 1) | – | – | 18.5 | apparent KD of MS2 coat protein [2]: 14.5 nM; apparent KD of MS2 coat protein [4]: 15.8 nM
16 | ACAUGAGGAUCACCCAUGUGAAAAGAAUGGCUGACACAGAGAUAGGAUAUAUGUGCAUAUCAAACAUAGAAGGGUCAUGACUGG [Deportation 83 - Jieux - Exclusion NG 3] (Eterna round: R96, puzzle: Exclusion NG 3) | – | – | – | apparent KD of MS2 coat protein [1]: 23 nM
17 | CCUAUGUGAGGAUAUCACUGGUCUUCUUUUAUUUUUUACAGUGAGAAGGCACAUGAGGAUCACCCAUGUCGGUG [Ex4 - 3 - 49] (puzzle: Exclusion 4) | – | – | 151 | –
18 | UUGUGCACGCUGCGAUCCUACAUGAGGAUCACCCAUGUGGUCUGGUGGCGUGGGUCACCGGACUUGGCUCGUCUUGC [salish99_S_TOV1_R5_073] (Eterna round: R97, puzzle: Sensor, turn-off variant 1) | 28.8 | 28.6 | – | –

Row | Sequence | apparent KD of MS2 coat protein (input ligand: FMN 200 uM) [nM] | apparent KD of MS2 coat protein (input ligand: none) [nM] | apparent KD of MS2 coat protein [3] [nM] | other results
19 | GGGUAAUUCGUGAGGAUAUCGCUAAGCACUUUGGCCGAGAAGGCACAUGAGGAUCACCCAUGUAAUACGGCACG [Eternabot (L1) Solution 92] (Eterna round: R97, puzzle: Brourd's mod of Exclusion 4) | 70.9 | 19.1 | – | –
20 | CCUCGUUGGGAGGAUAUCCUUUAGAUUGGAGGAGGAGAAGGCUCGACAUGAGGAUCACCCAUGUAAAAUUUAAA [-18.7, -17.5 kcal, A 31%] (Eterna round: R97, puzzle: Exclusion 6) | 274 | 73.3 | – | –
21 | CUUUUGUGAGGAUAUCAGUAGUAAUACAAUAGUAUUAUUACUGAGAAGGCACAUGAGGAUCACCCAUGUUCCUC [Ex4 344 Omei mod 7] (puzzle: Exclusion 4) | – | – | 38.6 | –
22 | AGGCAGCAAGGAUAUACAUAAUUCCUACAAGUCAGCAUAGGACAUGAGGAUCACCCAUGUAGAAGGUGCAAAGA [Soesquma] (puzzle: Exclusion 2) | – | – | 24.5 | –
23 | CUAGAUCUUCGGAUCUAGUACAUGAGGAUCACCCAUGUUACGAGCAGAUUUUCAUACAAGCUUUUUGCUCGUCUUAU [Sensor v3 - Turn-off variant 1 - 32] (puzzle: Sensor v3, turn-off variant 1) | – | – | 72.4 | apparent KD of MS2 coat protein [2]: 24.7 nM; apparent KD of MS2 coat protein [4]: 27.3 nM
24 | AAUUUACAUGAGGAUCACCCAUGUGAGGAUAUGAUACUAUGUACUUCGGUACAUAGUAUCAGAAGGCAUGUGAA [Ex1-3: 92] (puzzle: Exclusion 1) | – | – | 133 | –
25 | UUUAUAGUAGGAUAUACAUGAGGAUCACCCAUGUAGUAGGGAAGACCUUGGUGGGAACGUAGAAGGACUUGGAG [Eternabot (L2) Solution 44] (Eterna round: R97, puzzle: Exclusion 3) | 73.3 | 74.2 | – | –
26 | AAUUAUUGAUGAGGAUAUUGUGGUGAAACACCACAAGAAGGCAUUAUACACAUGAGGAUCACCCAUGUGAGCCUGAUGCUUAUG [Ex NG1 #55] (Eterna round: R96, puzzle: Exclusion NG 1) | – | – | – | apparent KD of MS2 coat protein [1]: 12.7 nM
27 | UGGAUAAUUGGAGGAUAUGCGACAUAAACCAUUGUAGAAGGCCAACAUGAGGAUCACCCAUGUGUCCCAGAGACCACAGAUCCA [Eternabot solution 9] (Eterna round: R96, puzzle: Exclusion NG 1) | 36.9 | 28.2 | – | apparent KD of MS2 coat protein [1]: 22.2 nM
28 | UGAGGACAUGAGGAUCACCCAUGUAAGGAUAUGCGGAGAGUUUGGAGAGGUUGAGGAGGCAGAAGGUACGGGAU [JR_Exclu1_Sub046] (puzzle: Exclusion 1) | – | – | 102 | –
29 | GAUCAUGCAGGAUAUACAUUAACCAUGAAAACAUGGAUCAAACAUGAGGAUCACCCAUGUAGAAGGGCAUGAUC [Omei Ex2 A21] (Eterna round: R97, puzzle: Exclusion 2) | 46.6 | 25.9 | – | –
30 | GACUUGUCAGGAUAUCUUACAUUAACAUCGUAGUUACCGUUGGAGAAGGGACAUGAGGAUCACCCAUGUUUGGC [tap-tap-tappy25] (Eterna round: R97, puzzle: Exclusion 4) | 41.8 | 28.7 | – | –
31 | GUCAGCUCGUGAGGAUAUACAUGAUAGAUCGAUUAAUUAAUUAAUUUAACAUGAGGAUCACCCAUGUAGAAGGUACGAGCUGAC [ENG2/1-C1] (Eterna round: R96, puzzle: Exclusion NG 2) | – | – | – | apparent KD of MS2 coat protein [1]: 43.3 nM
32 | GCCUUAUCUGUCAGGAUAUACAAUAAAAUAACUUUGUAGAAGGGACAUGAGGAUCACCCAUGUACAUUACAUUG [alecazam24b] (Eterna round: R97, puzzle: Brourd's mod of Exclusion 4) | 63.1 | 24.6 | – | –
33 | CUAGCUAUUGUAGGAUAUCGAUGUGUUUCACAUCGAGAAGGACAUGAGGAUCACCCAUGUGAAAGGAUCGUGAGAUCCAGCUAG [JL ENG1 3.76] (Eterna round: R96, puzzle: Exclusion NG 1) | 81.9 | 23.5 | – | apparent KD of MS2 coat protein [1]: 18.7 nM
34 | GGUAGAGAGCAGGAUAUCUUGGGUAAGUAUCGUAGAGAAGGGCUCACAUGAGGAUCACCCAUGUGGUCCUAGAU [JL Dibiri mod 04] (puzzle: Exclusion 6) | – | – | 11.8 | –
35 | GGUACUAACACGAAAGUGUUAGUACAAUAAGCUUGUGAAACAUGAGGAUCACCCAUGUCCUCAUAAGCUCGUCUUAG [salish99_TOv2_r3_005] (puzzle: Sensor v3, turn-off variant 2) | – | – | 392 | apparent KD of MS2 coat protein [2]: 13.4 nM; apparent KD of MS2 coat protein [4]: 12.3 nM
